B1: Azoarcus group I ribozyme (parent)
chain: GUGCCUUGCGCCGGGAAACCACGCAAGGGAUGGUGUCAAAUUCGGCGAAACCUAAGCGCCCGCCCGGGCGUAUGGCAACGCCGAGCCAAGCUUCGGCGCCUGCGCCGAUGAAGGUGUAGAGACUAGACGGCACCCACCUAAGGCAAACGCUAUGGUGAAGGCAUAGUCCAGGGAGUGGCGAAAGUCACACAAACCGG

Variants of: B1
Assay: reverse-splicing fitness (ratio to wild type); higher = more active; in vitro selection; Mg2+ level not given
Procedure, shortened: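 An in vitro group I ribozyme library with randomized positions was T7-transcribed and gel-purified. In triplicate, 10 pmol RNA in EPPS pH 7.5 was reacted with 50 pmoles of a 30-nt RNA substrate for 1 h at 37 °C across several added MgCl2 levels (1–48 mM), then stopped with EDTA. Products were reverse transcribed from a substrate-complementary primer, PCR-amplified and sequenced (HiSeq 4000). Fitness is a variant's read proportion after selection over that before, normalised to wild type.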

Point of comparison: C82U A111C A120U A145G U176C, reverse-splicing fitness 0.0113. Against it:
- C82U A111C A120U A145G C150G C169U U176A — lower, 0.0084
- C82U A111C A120U A145G C150G C169U U176C — lower, 0.00661
- C82U A111C A120U A145G C150G C169U U176G — lower, 0.00411
- C82U A111C A120U A145G C150G U176A — lower, 0.00648
- C82U A111C A120U A145G C150G U176C — lower, 0.00806
- C82U A111C A120U A145G C150G U176G — lower, 0.00395
- C82U A111C A120U A145G C150U — higher, 0.0233
- C82U A111C A120U A145G C150U C169A — lower, 0.00649
- C82U A111C A120U A145G C150U C169A U176A — lower, 0.00691
- C82U A111C A120U A145G C150U C169A U176C — lower, 0.00367
- C82U A111C A120U A145G C150U C169A U176G — lower, 0.00262
- C82U A111C A120U A145G C150U C169G — lower, 0.00549
- C82U A111C A120U A145G C150U C169G U176A — lower, 0.00475
- C82U A111C A120U A145G C150U C169G U176C — lower, 0.00346
- C82U A111C A120U A145G C150U C169G U176G — lower, 0.0025
- C82U A111C A120U A145G C150U C169U — lower, 0.00521
- C82U A111C A120U A145G C150U C169U U176A — lower, 0.00522
- C82U A111C A120U A145G C150U C169U U176C — lower, 0.00415
- C82U A111C A120U A145G C150U C169U U176G — lower, 0.00271
- C82U A111C A120U A145G C150U U176A — lower, 0.00854
- C82U A111C A120U A145G C150U U176C — lower, 0.0107
- C82U A111C A120U A145G C150U U176G — lower, 0.00287
- C82U A111C A120U A145G C169A — lower, 0.00276
- C82U A111C A120U A145G C169A U176A — lower, 0.00295
- C82U A111C A120U A145G C169A U176C — lower, 0.0035
- C82U A111C A120U A145G C169A U176G — lower, 0.00196
- C82U A111C A120U A145G C169G — lower, 0.0042
- C82U A111C A120U A145G C169G U176A — lower, 0.00323
- C82U A111C A120U A145G C169G U176C — lower, 0.00344
- C82U A111C A120U A145G C169G U176G — lower, 0.0017
- C82U A111C A120U A145G C169U — lower, 0.00448
- C82U A111C A120U A145G C169U U176A — lower, 0.00527
- C82U A111C A120U A145G C169U U176C — lower, 0.00342
- C82U A111C A120U A145G C169U U176G — lower, 0.00206
- C82U A111C A120U A145G U176A — lower, 0.00722
- C82U A111C A120U A145G U176G — lower, 0.00307
- C82U A111C A120U A145U — higher, 0.0254
- C82U A111C A120U A145U C150A — lower, 0.00535
- C82U A111C A120U A145U C150A C169A — lower, 0.00298
- C82U A111C A120U A145U C150A C169A U176A — lower, 0.00217
- C82U A111C A120U A145U C150A C169A U176C — lower, 0.00253
- C82U A111C A120U A145U C150A C169A U176G — lower, 0.00255
- C82U A111C A120U A145U C150A C169G — lower, 0.00265
- C82U A111C A120U A145U C150A C169G U176A — lower, 0.00239
- C82U A111C A120U A145U C150A C169G U176C — lower, 0.003
- C82U A111C A120U A145U C150A C169G U176G — lower, 0.00205
- C82U A111C A120U A145U C150A C169U — lower, 0.00262
- C82U A111C A120U A145U C150A C169U U176A — lower, 0.00365
- C82U A111C A120U A145U C150A C169U U176C — lower, 0.00256
- C82U A111C A120U A145U C150A C169U U176G — lower, 0.00245
- C82U A111C A120U A145U C150A U176A — lower, 0.00357
- C82U A111C A120U A145U C150A U176C — lower, 0.00465
- C82U A111C A120U A145U C150A U176G — lower, 0.00247
- C82U A111C A120U A145U C150G — lower, 0.00613
- C82U A111C A120U A145U C150G C169A — lower, 0.00391
- C82U A111C A120U A145U C150G C169A U176A — lower, 0.00336
- C82U A111C A120U A145U C150G C169A U176C — lower, 0.00322
- C82U A111C A120U A145U C150G C169A U176G — lower, 0.00233
- C82U A111C A120U A145U C150G C169G — lower, 0.00306
- C82U A111C A120U A145U C150G C169G U176A — lower, 0.00332
- C82U A111C A120U A145U C150G C169G U176C — lower, 0.00224
- C82U A111C A120U A145U C150G C169G U176G — lower, 0.0024
- C82U A111C A120U A145U C150G C169U — lower, 0.00311
- C82U A111C A120U A145U C150G C169U U176A — lower, 0.00227
- C82U A111C A120U A145U C150G C169U U176C — lower, 0.00264
- C82U A111C A120U A145U C150G C169U U176G — lower, 0.0025
- C82U A111C A120U A145U C150G U176A — lower, 0.00354
- C82U A111C A120U A145U C150G U176C — lower, 0.00509
- C82U A111C A120U A145U C150G U176G — lower, 0.00316
- C82U A111C A120U A145U C150U — higher, 0.0186
- C82U A111C A120U A145U C150U C169A — lower, 0.00252
- C82U A111C A120U A145U C150U C169A U176A — lower, 0.00306
- C82U A111C A120U A145U C150U C169A U176C — lower, 0.00282
- C82U A111C A120U A145U C150U C169A U176G — lower, 0.00229
- C82U A111C A120U A145U C150U C169G — lower, 0.00301
- C82U A111C A120U A145U C150U C169G U176A — lower, 0.00231
- C82U A111C A120U A145U C150U C169G U176C — lower, 0.00305
- C82U A111C A120U A145U C150U C169G U176G — lower, 0.00201
- C82U A111C A120U A145U C150U C169U — lower, 0.0037
- C82U A111C A120U A145U C150U C169U U176A — lower, 0.00267
- C82U A111C A120U A145U C150U C169U U176C — lower, 0.003
- C82U A111C A120U A145U C150U C169U U176G — lower, 0.00223

Source: the RNAGym collection of RNA variant scans (doi:10.1093/molbev/msab373)
